Laboratory results published in patent US20070259824A1 (TOUDAI TLO, published 2007).

Columns and labels:
[1] = target: T1, CD26 on activated T cells (human, UniProt P27487 1-766); assay: T cell-monocyte conjugates, confocal microscopy
T1 construct: whole, on cells; also called CD26 on T cells

[2] = target: endogenous Tollip (THP-1 cells, monocytes) (human, UniProt Q9H0E2 2-274); assay: immunoprecipitation with anti-caveolin-1 pAb from TT-loaded monocytes, immunoblot with anti-Tollip
[3] = target: T2, GST-CD26 D1 (residues 507-766) (UniProt P27487 507-766); assay: GST pull-down from THP-1 lysate, immunoblot with anti-caveolin-1
T2 construct: Produced in COS-7 cells, on GSH beads; not shown: GST of mammalian vector pEBG
T2 sequence (P27487 507-766): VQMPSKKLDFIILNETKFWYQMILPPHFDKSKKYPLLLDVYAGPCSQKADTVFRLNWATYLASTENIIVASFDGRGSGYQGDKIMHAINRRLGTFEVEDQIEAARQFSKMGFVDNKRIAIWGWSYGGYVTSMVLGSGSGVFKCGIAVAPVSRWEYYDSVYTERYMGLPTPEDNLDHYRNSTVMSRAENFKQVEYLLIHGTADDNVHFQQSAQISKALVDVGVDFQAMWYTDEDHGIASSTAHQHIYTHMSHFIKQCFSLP

[4] = target: T3, GST-CD26 D2 (residues 267-584) (UniProt P27487 267-584); assay: as above
T3 construct: range 267-584; Produced in COS-7 cells, on GSH beads; not shown: GST of mammalian vector pEBG
T3 sequence (P27487 267-584): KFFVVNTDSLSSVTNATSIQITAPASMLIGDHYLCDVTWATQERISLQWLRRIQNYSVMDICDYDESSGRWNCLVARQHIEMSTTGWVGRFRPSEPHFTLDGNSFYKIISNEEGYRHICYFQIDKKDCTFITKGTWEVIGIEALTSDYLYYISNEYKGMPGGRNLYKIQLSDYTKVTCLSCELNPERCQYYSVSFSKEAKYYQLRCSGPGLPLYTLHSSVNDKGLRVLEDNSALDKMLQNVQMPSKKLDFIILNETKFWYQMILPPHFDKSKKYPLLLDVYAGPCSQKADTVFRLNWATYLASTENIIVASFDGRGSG

[5] = target: T4, IRAK-4 (in TT-loaded monocytes) (human, UniProt Q9NWZ3 1-460); assay: immunoprecipitation with anti-caveolin-1 pAb from TT-loaded monocytes
T4 sequence: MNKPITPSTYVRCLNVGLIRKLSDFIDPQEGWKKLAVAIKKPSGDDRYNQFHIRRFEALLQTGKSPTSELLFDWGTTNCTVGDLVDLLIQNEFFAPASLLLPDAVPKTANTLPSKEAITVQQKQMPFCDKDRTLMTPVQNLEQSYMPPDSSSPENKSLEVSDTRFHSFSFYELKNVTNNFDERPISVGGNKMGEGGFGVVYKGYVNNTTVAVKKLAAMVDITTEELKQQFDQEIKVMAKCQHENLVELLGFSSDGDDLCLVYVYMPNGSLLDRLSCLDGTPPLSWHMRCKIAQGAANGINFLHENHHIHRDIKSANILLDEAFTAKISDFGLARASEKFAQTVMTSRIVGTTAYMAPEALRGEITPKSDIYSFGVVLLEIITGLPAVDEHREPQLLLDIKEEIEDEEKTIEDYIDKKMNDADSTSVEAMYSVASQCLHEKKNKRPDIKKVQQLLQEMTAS

[6] = target: MyD88 (in TT-loaded monocytes) (human, UniProt Q99836 1-296); assay: as above
MyD88 (in TT-loaded monocytes), sequence (Q99836 whole entry): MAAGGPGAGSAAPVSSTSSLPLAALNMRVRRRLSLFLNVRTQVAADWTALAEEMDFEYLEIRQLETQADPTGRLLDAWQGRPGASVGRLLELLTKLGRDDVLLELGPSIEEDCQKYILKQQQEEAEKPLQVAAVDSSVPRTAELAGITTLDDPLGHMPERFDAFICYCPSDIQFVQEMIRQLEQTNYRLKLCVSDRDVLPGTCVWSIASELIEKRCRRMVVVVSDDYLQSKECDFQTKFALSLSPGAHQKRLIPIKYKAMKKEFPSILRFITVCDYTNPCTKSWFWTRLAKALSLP

[7] = target: T5, CD26 in J.CD26 cell lysate (Jurkat T cells with stable expression of CD26) (UniProt P27487 1-766); assay: GST pull-down from J.CD26 lysate, immunoblot with anti-CD26
T5 construct: Whole CD26 from transfected cells, used as lysate in the GST pull-down; also called CD26 transfected Jurkat T cells
T5 sequence (P27487 whole entry): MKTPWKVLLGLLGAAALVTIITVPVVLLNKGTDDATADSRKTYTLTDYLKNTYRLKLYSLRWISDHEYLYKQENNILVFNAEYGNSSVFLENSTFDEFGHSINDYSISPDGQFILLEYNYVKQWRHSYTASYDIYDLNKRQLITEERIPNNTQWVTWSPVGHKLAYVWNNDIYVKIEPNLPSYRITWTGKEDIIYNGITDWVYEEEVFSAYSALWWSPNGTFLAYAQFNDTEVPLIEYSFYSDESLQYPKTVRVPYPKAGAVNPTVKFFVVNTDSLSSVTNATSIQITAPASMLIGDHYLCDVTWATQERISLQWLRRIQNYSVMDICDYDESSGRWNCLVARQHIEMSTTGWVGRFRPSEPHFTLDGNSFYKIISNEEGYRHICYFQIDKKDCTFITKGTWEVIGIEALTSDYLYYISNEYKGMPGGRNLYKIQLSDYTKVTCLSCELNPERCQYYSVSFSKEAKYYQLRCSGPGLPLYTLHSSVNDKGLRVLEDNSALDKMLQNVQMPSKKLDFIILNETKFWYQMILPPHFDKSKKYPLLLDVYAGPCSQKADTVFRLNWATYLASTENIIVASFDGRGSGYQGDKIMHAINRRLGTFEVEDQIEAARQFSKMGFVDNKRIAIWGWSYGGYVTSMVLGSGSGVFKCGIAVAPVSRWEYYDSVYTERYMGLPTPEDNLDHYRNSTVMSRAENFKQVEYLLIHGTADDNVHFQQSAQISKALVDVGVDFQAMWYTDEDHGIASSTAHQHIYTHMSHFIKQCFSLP

[8] = target: T6, recombinant soluble CD26 (rsCD26 wt) (UniProt P27487 29-766, limits assumed); assay: confocal microscopy of transfected HEK293 cells
T6 construct: extracellular domain; Used free, conjugated with Texas red, or coated on latex beads; also called sCD26-TR; CD26-TR
T6 sequence (P27487 29-766 limits assumed): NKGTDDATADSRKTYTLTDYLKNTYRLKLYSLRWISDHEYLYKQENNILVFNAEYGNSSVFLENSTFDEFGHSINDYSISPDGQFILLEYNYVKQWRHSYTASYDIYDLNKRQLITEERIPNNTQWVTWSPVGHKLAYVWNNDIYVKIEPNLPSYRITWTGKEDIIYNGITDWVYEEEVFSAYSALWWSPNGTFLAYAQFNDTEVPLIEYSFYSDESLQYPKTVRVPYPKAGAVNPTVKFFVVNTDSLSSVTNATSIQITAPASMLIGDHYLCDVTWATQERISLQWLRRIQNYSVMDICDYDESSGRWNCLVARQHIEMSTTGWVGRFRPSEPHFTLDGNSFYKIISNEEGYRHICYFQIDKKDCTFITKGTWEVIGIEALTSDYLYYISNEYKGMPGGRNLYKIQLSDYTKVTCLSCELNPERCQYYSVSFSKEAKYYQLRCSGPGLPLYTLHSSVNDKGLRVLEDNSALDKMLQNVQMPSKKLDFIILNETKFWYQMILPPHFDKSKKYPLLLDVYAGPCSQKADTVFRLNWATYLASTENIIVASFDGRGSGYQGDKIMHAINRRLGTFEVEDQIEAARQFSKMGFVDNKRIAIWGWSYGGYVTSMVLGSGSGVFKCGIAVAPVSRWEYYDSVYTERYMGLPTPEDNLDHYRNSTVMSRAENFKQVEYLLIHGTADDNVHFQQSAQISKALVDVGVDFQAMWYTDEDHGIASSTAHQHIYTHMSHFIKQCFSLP

[9] = target: T7, GFP-fused wild type CD26 (CD26 wt-GFP) on transfected HEK293 cells (UniProt P27487 1-766); assay: confocal microscopy of transfected HEK293 cells
T7 construct: also called CD26-EGFP; GFP-CD26 wt; not shown: EGFP of vector pEB6-CAG-EGFP (engineered variant of Aequorea victoria GFP)
T7 sequence (P27487 whole entry, the tested form may be a part): as the sequence (P27487 whole entry) above

[10] = target: T8, CD26 S630A-GFP on transfected HEK293 cells (UniProt P27487 1-766); assay: confocal microscopy of transfected HEK293 cells
T8 construct: also called DPPIV activity-deleted mutant (S630A); not shown: EGFP of vector pEB6-CAG-EGFP
T8 sequence (P27487 whole entry S630A): as the sequence (P27487 whole entry) above, with S630A counted along it

T1 sequence (P27487 whole entry): as the sequence (P27487 whole entry) above

B1: caveolin-1 on the cell surface of TT-loaded monocytes (other)
chain: SGGKYVDSEGHLYTVPIREQGNIYKPNNKAMADELSEKQVYDAHTKEIDLVNRDPKHLNDDVVKIDFEDVIAEPEGTHSFDGIWKASFTTFTVTKYWFYRLLSALFGIPMALIWGIYFAILSFLHIWAVVPCIKSFLIEIQCISRVYSIYVHTVCDPLFEAVGKIFSNVRINLQKEI
notes: whole, on cells
binding result [1]: binds

B2: endogenous caveolin-1 (THP-1 cell lysate, monocyte lysate) (other, human, UniProt Q03135 2-178, looked up)
chain: B1 chain
notes: Endogenous whole protein from cell lysates
binding result [2]: binds | binding result [3]: no binding | binding result [4]: no binding | binding result [5]: no binding | binding result [6]: no binding

B3: GST-Cav-1 (102-178) (other, UniProt Q03135 102-178, looked up)
chain: LLSALFGIPMALIWGIYFAILSFLHIWAVVPCIKSFLIEIQCISRVYSIYVHTVCDPLFEAVGKIFSNVRINLQKEI
notes: range 102-178; not shown: GST of vector pGEX6p1
binding result [7]: no binding

B4: GST-Cav-1 (1-82) (other, UniProt Q03135 1-82, looked up)
chain: MSGGKYVDSEGHLYTVPIREQGNIYKPNNKAMADELSEKQVYDAHTKEIDLVNRDPKHLNDDVVKIDFEDVIAEPEGTHSFD
notes: range 1-82; not shown: GST of vector pGEX6p1
binding result [7]: no binding

B5: GFP-fused full-length caveolin-1 (caveolin-1-GFP) in transfected cells (other, UniProt Q03135 1-178, looked up)
chain: MSGGKYVDSEGHLYTVPIREQGNIYKPNNKAMADELSEKQVYDAHTKEIDLVNRDPKHLNDDVVKIDFEDVIAEPEGTHSFDGIWKASFTTFTVTKYWFYRLLSALFGIPMALIWGIYFAILSFLHIWAVVPCIKSFLIEIQCISRVYSIYVHTVCDPLFEAVGKIFSNVRINLQKEI
notes: Expressed in HEK293 cells (with sCD26-TR) or stably in THP-1 cells (with Tollip); also called caveolin-1-EGFP; GFP-caveolin-1; not shown: EGFP of vector pEB6-CAG-EGFP
binding result [8]: binds

B6: Texas red conjugated caveolin-1 (cav-TR) (other, UniProt Q03135 1-178, looked up)
chain: B5 chain
modifications: Texas red conjugated
notes: range 1-178; also called caveolin-1 wt recombinant protein
binding result [9]: binds | binding result [10]: no binding
